The series deals with the molecule itself. As to the kind of experiment: native gel or EMSA.

B1: recombinant eGFP–GBPL3 (natural protein, Arabidopsis thaliana, UniProt F4KG14 1-1082, looked up)
chain: MRSFFGRGGKDSPADSASPSPRSYPSTSPASSSAVTGPPRPIRLVYCDEKGKFRMDPEAVATLQLVKEPIGVVSVCGRARQGKSFILNQLLGRSNGFQVASTHKPCTKGLWLWSSPIKRTALDGTEYNLLLLDSEGIDAYDQTGTYSTQIFSLAVLLSSMFVYNQMGGIDEASLDRLSLVTQMTKHIRVKASGGTSSRSELGQFSPIFVWLLRDFYLDLVEDNRKISPRDYLEIALRPVQGSGGDIGAKNEIRDSIRALFPDRECFTLVRPLNNEKDLQRLDQISLEKLRPEFGAGLDAFTKFVFEKTRPKQLGGTVMTGPILVGITQSYLDALNNGAVPTITSSWQSVEETECRRAYDSGVEAYMAAFDQSKAPEEGALREEHEEAVRKALAIFNSNAVGNGSARKKFEDLLHKDLKKKFEDYKKNAFMEADLRCTSTIQRMEKQLRAACHASNANMDNVVKVLEARLAEYEASCHGPGKWQKLSVFLQQSLEGPIYDLTKRLIDSIAIEKNSLAMKFRSVEDAMKHLKQQLDDSERYKLEYQKRYDESNNDKKKLEDIYRERITKLQGENSSLNERCSTLVKTVESKKEEIKEWIRNYDQIVLKQKAVQEQLSSEMEVLRTRSTTSEARVAAAREQAKSAAEETKEWKRKYDYAVGEARSALQKAASVQERSGKETQLREDALREEFSITLANKDEEITEKATKLEKAEQSLTVLRSDLKVAESKLESFEVELASLRLTLSEMTDKLDSANKKALAYEKEANKLEQEKIRMEQKYRSEFQRFDEVKERCKAAEIEAKRATELADKARTDAVTSQKEKSESQRLAMERLAQIERAERQVENLERQKTDLEDELDRLRVSEMEAVSKVTILEARVEEREKEIGSLIKETNAQRAHNVKSLEKLLDEERKAHIAANRRAEALSLELQAAQAHVDNLQQELAQARLKETALDNKIRAASSSHGKRSRFEDVVDMDIGEGSDRILRTNKRARSTRGDDHGPTDEGDEDFQSHQDNGEEEEEEDYRKLTVQNLKHELTKYDCGHLLLNRGHQNKKEILALYEAHVLPKKALAREEERKKQREVTSS
Consider B1, for which the binding result is “binds”.

For the origin of these results see publication PMC8478157 (Nature, 2021).
